The target of test [1] is T1, SbMATE (Sorghum bicolor, UniProt A7XZS5).
T1 sequence (A7XZS5 1-600): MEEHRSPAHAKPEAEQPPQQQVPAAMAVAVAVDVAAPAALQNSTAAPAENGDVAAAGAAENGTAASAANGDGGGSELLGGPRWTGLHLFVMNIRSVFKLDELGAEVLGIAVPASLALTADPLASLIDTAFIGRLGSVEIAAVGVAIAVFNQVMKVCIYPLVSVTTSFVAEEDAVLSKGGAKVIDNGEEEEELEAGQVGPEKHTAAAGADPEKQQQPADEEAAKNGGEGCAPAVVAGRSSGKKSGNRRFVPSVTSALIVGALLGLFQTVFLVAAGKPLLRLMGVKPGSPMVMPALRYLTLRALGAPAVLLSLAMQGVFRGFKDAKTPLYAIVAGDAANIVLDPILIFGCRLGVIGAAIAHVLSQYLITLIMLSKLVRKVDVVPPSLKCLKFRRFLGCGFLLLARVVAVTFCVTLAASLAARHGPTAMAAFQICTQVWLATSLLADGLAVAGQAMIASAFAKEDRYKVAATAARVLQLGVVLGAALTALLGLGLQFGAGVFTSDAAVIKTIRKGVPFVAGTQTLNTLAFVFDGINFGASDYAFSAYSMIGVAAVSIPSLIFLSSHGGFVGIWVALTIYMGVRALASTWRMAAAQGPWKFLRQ
Description: surface plasmon resonance, immobilized detergent-purified protein. It counts as binding. More on the design: full-length; N-terminal FLAG and C-terminal His10 (or 3C-cleavable C-terminal His8) in Pichia pastoris KM71H, bDDM-purified for SPR; Xenopus oocytes from cRNA for citrate efflux. The note with it: 50 mM HEPES pH 8.0, 150 mM NaCl, 0.03% bDDM.

For test [2], the target named is T1, SbMATE. In words: ethidium uptake into Pichia pastoris cells, flow cytometry of DNA-bound ethidium. Type of test: cell-based. More on the design: full-length; N-terminal FLAG and C-terminal His10 (or 3C-cleavable C-terminal His8) in Pichia pastoris KM71H. The note with it: pH 8.5, 25 mM Tris-Cl, 137 mM NaCl, 2.7 mM KCl, outward proton gradient, 20 min, room temperature; read-out: half-maximal transport rate.

For test [3], the target named is T2, SbMATE (Sorghum bicolor MATE transporter), detergent-purified (Sorghum bicolor, bDDM detergent-solubilised from Pichia pastoris; N-terminal FLAG and C-terminal His10 tags left out; covalently immobilised by EDC-NHS chemistry for SPR).
T2 chain: T1 sequence (A7XZS5 1-600)
Description: SPR; BiOptix 404Pi, CMD sensorchip; detergent-purified SbMATE covalently immobilised (EDC-NHS, 5,000 RU); purified Nbs injected at various concentrations; running buffer 50 mM HEPES pH 8.0, 150 mM NaCl, 0.03% bDDM; double-referenced against a blank surface and buffer injections; regeneration 50 mM glycine pH 2.1. The following applies: both partners purified.

Test [4] has as its target T2, SbMATE (Sorghum bicolor MATE …). In words: SPR; as the other SPR (SbMATE covalently immobilised on CMD chip; 50 mM HEPES pH 8.0, 150 mM NaCl, 0.03% bDDM; Nbs injected at various concentrations) but a BSA-immobilised surface was the reference channel instead of a blank surface; n = 3. The note with it: both partners purified.

On to ethidium bromide, for which, at SbMATE [1], the Kd turned out to be 47.1 ± 15.6 µM. In addition, the Km at SbMATE [2] was found to be 130 ± 17.8 µM.

B1: Nb 93 (VHH)
VHH: HVQLVESGGGLVQAGGFLRLSCTASGFTFDNLALAWFRQAPGKEREGVSCISWSGTRTYYADSVQGRFAISRDNAKNTLYLQMASLKPEDTAMYYCAAESSWVKTCPGDTTDWGSTYWGQGTQVTVSS
notes: Selected by mRNA/cDNA display from a naive camelid single-domain library (Creative Biolabs); also called nanobody 93; source: E. coli, purified (Ni-NTA, SEC)
B1 showed a Kd in test [3] of 26.1 µM.

B2: Nb 81 (VHH)
VHH: HVQLVESGGGSVQAGGSLRLSCAASGYSYCSYDMSWYRQAPGKEREFVATIDSYGDTSYADSVKGRFTISQDNAKNTLYLQMNSLKPEDTAMYYCATTPYGGWRYFGYWGQGTQVTVSS
notes: Selected by mRNA/cDNA display from a naive camelid single-domain library (Creative Biolabs); also called nanobody 81; source: E. coli, purified (Ni-NTA, SEC)
For the molecule B2, the affinity in test [3], expressed as Kd, was 23.9 µM.

B3: Nb 86 (VHH)
VHH: HVQLVESGGGSVQAGGSLRLTCAASGFTFSNYYMSWVRQAPGKGLEWVSSIYSVGSNGYYADSVKGRSTISRDNAKNTLYLQMNSLKPEDTAVYYCAAEPGGSWWDAYSYWGQGTQVTVSS
notes: Selected by mRNA/cDNA display from a naive camelid single-domain library (Creative Biolabs); also called nanobody 86; source: E. coli Shuffle T7, purified (Ni-NTA, SEC)
In test [4], B3 gave a Kd of 0.174 µM. This lies in the sub-micromolar range.

B4: Nb 83 (VHH)
VHH: EVQLVESGGGSVQAGGSLRLSCAVSGYTYCSYDMSWYRQAPGKEREFVSGIDSDGSTSYADSVKGRFTISQDNAKNTLYLQMNSLKPEDTAMYYCAVDSVWRLCSLDPADFGYWGQGTQVTVSS
notes: Selected by mRNA/cDNA display from a naive camelid single-domain library (Creative Biolabs); also called nanobody 83; source: E. coli BL21 (DE3) Star, purified (Ni-NTA, SEC)
In turn, B4 returned a dissociation constant Kd in test [3] of 3.3 µM.

B5: Nb 94 (VHH)
VHH: EVQLVESGGGLVQPGGSLRLSCAASGFTFSTYSMSWVRLAPGKALEWVSVINSGGDATYYADSVKGRFTISRDNAKNMLYLQMNSLKPVDTAMYYCVTGLYMSTGPVVAVPFGYWGQGTQVTVSS
notes: Selected by mRNA/cDNA display from a naive camelid single-domain library (Creative Biolabs); also called nanobody 94; source: E. coli BL21 (DE3) Star, purified (Ni-NTA, SEC)
In turn, B5 registered a Kd in test [4] of 0.0995 µM. This lies in the double-digit nanomolar range.

B6: Nb 80 (VHH)
VHH: QVQLVESGGGSVQAGGSLRLSCTYSVYTYSSDSMAWFRQAPGKEREGVAGIYIGSGSTLYADSAKGRLTISQDKAKNTVYLQMNSLKPEDTALYYCAAGGNWYDGVLNVERAFAYWGQGTQVTVSS
notes: Selected by mRNA/cDNA display from a naive camelid single-domain library (Creative Biolabs); also called nanobody 80; source: E. coli, purified (Ni-NTA, SEC)
Take B6: binding in test [3] was put at a Kd of 12.2 µM.

Source of the values: publication PMC5740117, “Functional characterization and discovery of modulators of SbMATE, the agronomically important aluminium tolerance transporter from Sorghum bicolor” (Scientific Reports, 2017).
